Assay results as given in publication PMC6435710.

Experiments:
[1] = molecular target: salmon Calcitonin (salmon); assay: cross-linking; PICUP (Ru(bpy)3, ammonium persulfate, 2 s light) then tricine SDS-PAGE, silver stain and densitometry; native unfractioned Monomer-enriched sample (powder dissolved in desalted water, 80 uM)
[2] = molecular target: salmon Calcitonin (salmon); assay: cross-linking; PICUP (Ru(bpy)3, ammonium persulfate, 2 s light) then tricine SDS-PAGE, silver stain and densitometry; PFOs-enriched SEC fractions (29th and 30th), 80 uM
[3] = molecular target: salmon Calcitonin (salmon); assay: SEC; Sephadex G50 column at 4 °C, 5 mM phosphate buffer pH 7.4; spontaneously aggregated native sCT (2 mg incubated overnight at room temperature); calibrated with BSA, cytochrome c, aprotinin, somatostatin; absorbance at 280 nm

PFOs% (trimers + tetramers + pentamers + hexamers percentage of the gel lane) [1]: 16.5% | PFOs% (trimers + tetramers + pentamers + hexamers percentage of the gel lane) [2]: 54% | stoichiometry N [3]: 2
Substance: salmon Calcitonin (peptide)
